In PMC7894019:

Biological target: ZNF191 (purified recombinant) (UniProt P17028 1-368)
Assay: EMSA

ZNF191 (purified recombinant), sequence (P17028 whole entry): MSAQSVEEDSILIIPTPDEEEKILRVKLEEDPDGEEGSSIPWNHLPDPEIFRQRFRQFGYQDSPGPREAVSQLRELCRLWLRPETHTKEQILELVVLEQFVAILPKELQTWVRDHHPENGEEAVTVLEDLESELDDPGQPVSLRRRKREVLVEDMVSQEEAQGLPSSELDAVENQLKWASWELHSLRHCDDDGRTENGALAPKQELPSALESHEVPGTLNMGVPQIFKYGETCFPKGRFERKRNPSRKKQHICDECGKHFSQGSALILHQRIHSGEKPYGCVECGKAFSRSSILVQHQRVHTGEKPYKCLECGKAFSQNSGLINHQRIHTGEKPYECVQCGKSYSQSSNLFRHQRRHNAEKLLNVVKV

Binder	binding result
WNT8BP(nt-1491) (dsDNA) DNA 1: GTGAATTTGTGTATTAATTCTTTATTTTCT DNA 2: AGAAAATAAAGAATTAATACACAAATTCAC	binds
WNT8BP(nt-1178) (dsDNA) DNA 1: GATTATCATGCATTCATTGTATGCCTGTAT DNA 2: ATACAGGCATACAATGAATGCATGATAATC	binds
